In patent US20210079083A1 (INSTITUTE FOR BASIC SCIENCE, published 2021):

T1: Human Angiopoietin-2 full-length (hAng2) (human, UniProt O15123 19-496)
T1 construct: The cell assays used full-length hAng2 from R&D Systems; also called human Ang2; A2
T1 sequence: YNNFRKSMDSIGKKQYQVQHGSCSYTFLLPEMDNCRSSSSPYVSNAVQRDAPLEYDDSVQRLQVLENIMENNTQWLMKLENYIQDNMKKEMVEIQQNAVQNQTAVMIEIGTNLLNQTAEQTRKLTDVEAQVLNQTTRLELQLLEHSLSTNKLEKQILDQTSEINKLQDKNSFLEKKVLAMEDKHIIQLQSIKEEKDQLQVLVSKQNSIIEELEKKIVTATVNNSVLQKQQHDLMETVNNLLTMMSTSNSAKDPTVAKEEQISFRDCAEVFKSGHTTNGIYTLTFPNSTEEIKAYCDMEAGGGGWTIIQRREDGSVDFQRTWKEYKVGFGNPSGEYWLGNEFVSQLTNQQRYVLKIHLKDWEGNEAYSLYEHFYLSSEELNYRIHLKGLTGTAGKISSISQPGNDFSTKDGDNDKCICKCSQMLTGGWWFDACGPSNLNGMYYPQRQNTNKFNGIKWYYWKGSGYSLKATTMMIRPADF

T2: mouse Ang2 (mAng2) (mouse, UniProt O35608 19-496, limits assumed)
T2 construct: Coated on the ELISA plate; also called recombinant mAng2
T2 sequence (looked up): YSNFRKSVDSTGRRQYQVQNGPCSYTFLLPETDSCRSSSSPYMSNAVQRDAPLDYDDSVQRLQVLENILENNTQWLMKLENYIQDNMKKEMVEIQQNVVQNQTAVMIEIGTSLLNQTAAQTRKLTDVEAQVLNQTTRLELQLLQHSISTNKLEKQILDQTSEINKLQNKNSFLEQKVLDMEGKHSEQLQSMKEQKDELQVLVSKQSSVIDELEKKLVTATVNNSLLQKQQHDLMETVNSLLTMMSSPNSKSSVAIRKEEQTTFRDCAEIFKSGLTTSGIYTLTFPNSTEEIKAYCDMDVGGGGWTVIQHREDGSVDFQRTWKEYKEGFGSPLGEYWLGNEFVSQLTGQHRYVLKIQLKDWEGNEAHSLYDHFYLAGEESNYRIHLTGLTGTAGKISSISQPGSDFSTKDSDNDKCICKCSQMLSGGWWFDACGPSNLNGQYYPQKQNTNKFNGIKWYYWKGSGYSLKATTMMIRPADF

B1: mouse anti-Ang2 antibody 2C8 (antibody, V domains shown)
VH: QVQLQQSGPQLVRPGASVKISCKASGYSFTSYWMHWVKQRPGQGLEWIGMIDPSDSETRLNQKFKDKASLTVDKSSSTAYMQLSSPTSGDSAVYYCARRFYYGSDWYFDVWGAGSTVTVSS
VL: DIVMTQSHKFMSTSVGDRVSITCKASQDVGTAVAWYQQKPGQSPKLLIYWASTRHTGVPDRFTGSGSGTDFTLTISNVQSEDLADYFCQQYSSYPLTFGSGTKLEIK
B2: mouse anti-Ang2 antibody 4E2 (antibody, V domains shown)
VH: EVQLQQSGPELEKPGASVKISCKASGYSFTGYNMNWVKQSNGKSLEWIGNIDPYYGGTSYNQKFKGKATLTVDKSSSTAYMQLKSLTSEDSAVYYCVRYGNYVDYWGQGTTLTVSS
VL: DIVMTQSHKFMSTSVGDRVSITCKASQDVSTAVAWYQQKPGQSPKLLIYWASTRHTGVPDRFTGSGSGTDYTLTISSVQAEDLALYYCQQHYNTPPTFGSGTKLEIK
notes: Mouse monoclonal antibody from a hybridoma, purified on Protein G
B3: mouse anti-Ang2 antibody 2F10 (antibody, V domains shown)
VH: QVQLVESGGGLVKPGGSLKLSCAASGFTFSDYYMYWIRQTPEKRLEWVATINDGGSYTYYPDSVKGRFTISRDNAKNNLYLQMSSLKSEDTAMYYCARDWGLRPWFVYWGQGTLVTVSA
VL: DIVMTQSHKFMSTSVGDRVSITCKASQDVSTAVAWYQQKPGQSPKLLIYWASTRHTGVPDRFTGSGSGTDYTLTISSVQAEDLALYYCQQHYTTPPTFGSGTKLEIK
notes: as for B2
B4: mouse anti-Ang2 antibody 4B9 (antibody, V domains shown)
VH: EVQLVESGGGLVKPGGSLKLSCAASGFTFSDYYMYWVRQTPEKRLEWVATISVGGSFTYYPDSVKGRFTISRDNAKNNLYLQMSSLKSEDTAMYYCARDWGLRPWFVYWGQGTLVTVSA
VL: DIVMTQSHKFMSTSVGDRVSITCKASQDVSTAVAWYQQKPGQSPKLLIYWASTRHTGVPDRFTGSGSGTDYTLTISSVQAEDLALYYCQQHYSTPPTFGSGTKLEIK
notes: Mouse monoclonal antibody from a hybridoma (KCLRF-BP-00418), purified on Protein G
B5: humanized anti-Ang2 antibody 2C8H11 (antibody, V domains shown)
VH: QVQLVQSGAEVKKPGASVKVSCKASGYTFTSYWMHWVRQAPGQGLEWMGMIDPSDSETRLNQKFKDRVTMTRDTSTSTVYMELSSLRSEDTAVYYCARRFYYGSDWYFDVWGQGTLVTVSS
VL: DIQLTQSPSFLSASVGDRVTITCKASQDVGTAVAWYQQKPGKAPKLLIYWASTRHTGVPSRFSGSGSGTEFTLTISSLQPEDFATYYCQQYSSYPLTFGQGTKVEIK
notes: Full-length human IgG1
B6: humanized anti-Ang2 antibody 4B9H11 (antibody, V domains shown)
VH: QVQLVESGGGLVKPGGSLRLSCAASGFTFSDYYMYWIRQAPGKGLEWVSTISVGGSFTYYPDSVKGRFTISRDNAKNSLYLQMNSLRAEDTAVYYCARDWGLRPWFVYWGQGTLVTVSS
VL: DIQMTQSPSSLSASVGDRVTITCKASQDVSTAVAWYQQKPGKAPKLLIYWASTRHTGVPSRFSGSGSGTDFTLTISSLQPEDFATYYCQQHYSTPPTFGQGTKVEIK
notes: Full-length human IgG1
B7: humanized anti-Ang2 antibody 4B9H31 (antibody, V domains shown)
VH: QVQLVESGGGLVKPGGSLRLSCAASGFTFSDYYMYWVRQAPGKGLEWVATISVGGSFTYYPDSVKGRFTISRDNAKNSLYLQMNSLRAEDTAVYYCARDWGLRPWFVYWGQGTLVTVSS
VL: DIQMTQSPSSLSASVGDRVTITCKASQDVSTAVAWYQQKPGKAPKLLIYWASTRHTGVPSRFSGSGSGTDFTLTISSLQPEDFATYYCQQHYSTPPTFGQGTKVEIK
notes: Full-length human IgG1

Legend:
[1] = biological target: T1, Human Angiopoietin-2 full-length (hAng2); test: BLI (Octet), hAng2 fixed on AR2G sensor, antibody 3.125-50 nM in solution, 1:1 global fit
Method: (§1) The affinity of mouse monoclonal antibody against hAng2 was measured using Octet system (ForteBio). Specifically, buffer and samples were measured in total 200 μl/well using Black 96-well plates (96 well F-type black plates, Greiner). […] After the hydration, hAng2 was diluted in 10 mM sodium acetate, pH 6.0 buffer at a concentration of 10 μg/ml, fixed on AR2G biosensor, and blocked with 1M ethanolamine. The mouse monoclonal anti-Ang2 antibodies were diluted to 50, 25, 12.5, 6.25, 3.125, and 0 nM with 1× kinetic buffer, and subjected to association for 300 seconds and dissociation for 900 seconds.

[2] = biological target: T1, Human Angiopoietin-2 full-length (hAng2); test: BLI (Octet), antibody fixed on AR2G sensor, hAng2 3.125-50 nM in solution, 1:1 global fit
Method: as §1, with “of humanized anti-Ang2” for “of mouse monoclonal”, “hydration, humanized anti-Ang2 antibody” for “hydration, hAng2”, “The recombinant hAng2 was” for “The mouse monoclonal anti-Ang2 antibodies were”, “300 sec” for “300 seconds”, “900 sec.” for “900 seconds.”
The affinities of humanized 2C8 antibodies to hAng2 were in Table 15.

mouse Ang2 (mAng2) = biological target: T2, mouse Ang2 (mAng2); test: ELISA, mAng2 coated at 20 ng per well, detection with anti-human IgG (Fab)-HRP
Method: FIG. 8. EC₅₀ values of anti-Ang2 antibodies against mouse Ang2 by ELISA. The binding affinities of humanized anti-Ang2 antibodies for mouse Ang2 (mAng2) were measured by analyzing EC₅₀ with ELISA. The recombinant mAng2 was coated and incubated with serially diluted anti-Ang2 antibodies, 4B9H11 and 2C8H11. Next, the plate was reacted with anti-human IgG (Fab)-HRP secondary antibody. The plate was treated with TMB solution and absorbance was measured at 450 nm. EC₅₀ value was analyzed using PerkinElmer's WorkOut 2.5 program.
The affinity of humanized antibodies for mouse Ang2 (mAng2) was analyzed by ELISA. Specifically, mAng2 was diluted in 30 μl of a coating buffer (0.1 M sodium carbonate buffer) at 20 ng per well in a half 96-well plate (Corning 3690) and incubated overnight at 4° C. After washing with TBS-T solution for 3 times, the well plate was blocked with 3% skim milk at room temperature for 1 hr and then washed again. 2C8H11 and 4B9H11 were serially diluted from […] to 300 ng/ml. After loading 30 μl of the diluted ant-Ang2 antibodies into wells, the well plate was incubated at room temperature for 2 hrs. […] After developing for 5 min, the plate was treated with 1N sulfuric acid to stop the reaction, and absorbance was measured at 450 nm. Based on the measured OD value, the EC₅₀ value was analyzed using PerkinElmer's WorkOut 2.5 program.

Row | Binder | Kd [1] [nM] | koff [1] [s⁻¹] | kon [1] [M⁻¹ s⁻¹] | Kd [2] [nM] | koff [2] [s⁻¹] | kon [2] [M⁻¹ s⁻¹] | EC50 (mouse Ang2 (mAng2)) [µg/mL]
1 | B1 | 0.0455 | 3.54e-06 | 77800 |  |  |  | 
2 | B2 | 4.74 | 0.000134 | 28300 |  |  |  | 
3 | B3 | 0.138 | 1.71e-05 | 124000 |  |  |  | 
4 | B4 | 0.00368 | 5.04e-07 | 137000 |  |  |  | 
5 | B5 |  |  |  | 0.212 | 1.4e-05 | 66000 | 97
6 | B6 |  |  |  | 0.0171 | 1.58e-06 | 92900 | 105
7 | B7 |  |  |  | 0.167 | 1.56e-05 | 93900 | 
